# Assay results: patent US20130052729A1, “METHOD FOR PREPARING INDUCED PARAXIAL MESODERM PROGENITOR (IPAM) CELLS AND THEIR USE” (priority 2011, published 2013)
# Entries after “also recorded” stand apart in the source; their conditions may differ.
# B1: R-spondin3: secreted protein of the R-spondin family that activates Wnt signalling pathway; recombinant protein obtained commercially (R&D) (protein, UniProt Q9BXY4 22-272, looked up)
# R-spondin-3: QNASRGRRQRRMHPNVSQGCQGGCATCSDYNGCLSCKPRLFFALERIGMKQIGVCLSSCPSGYYGTRYPDINKCTKCKADCDTCFNKNFCTKCKSGFYLHLGKCLDNCPEGLEANNHTMECVSIVHCEVSEWNPWSPCTKKGKTCGFKRGTETRVREIIQHPSAKGNLCPPTNETRKCTVQRKKCQKGERGKKGRERKRKKPNKGESKEAIPDSKSLESSKEIPEQRENKQQQKKRKVQDKQKSVSVSTVH
# B2: R-spondin2: secreted protein of the R-spondin family that activates Wnt signalling pathway; recombinant protein obtained commercially (R&D) (protein, UniProt Q6UXX9 22-243, looked up)
# R-spondin-2: QGNRWRRSKRASYVSNPICKGCLSCSKDNGCSRCQQKLFFFLRREGMRQYGECLHSCPSGYYGHRAPDMNRCARCRIENCDSCFSKDFCTKCKVGFYLHRGRCFDECPDGFAPLEETMECVEGCEVGHWSEWGTCSRNNRTCGFKWGLETRTRQIVKKPVKDTILCPTIAESRRCKMTMRHCPGGKRTPKAKEKRNKKKKRKLIERAQEQHSVFLATDRANQ
# B3: Dkk1: secreted extracellular Wnt antagonist, inhibitor of canonical Wnt signaling (protein, UniProt O94907 32-266, looked up)
# Dickkopf-related protein 1: TLNSVLNSNAIKNLPPPLGGAAGHPGSAVSAAPGILYPGGNKYQTIDNYQPYPCAEDEECGTDEYCASPTRGGDAGVQICLACRKRRKRCMRHAMCCPGNYCKNGICVSSDQNHFRGEIEETITESFGNDHSTLDGYSRRTTLSSKMYHTKGQEGSVCLRSSDCASGLCCARHFWSKICKPVLKEGQVCTKHRRKGSHGLEIFQRCYCGEGLSCRIQKDHHQASNSSRLHTCQRH
# Columns and labels:
# Msgn1RepV mES cells = test: iPAM induction in Msgn1RepV reporter mES cells (YFP+ cells, flow cytometry); format: cell-based, mouse; details: for effect on number of YFP+ cells: recombinant protein, 15% FBS, 4 days of differentiation
# Experimental: ES cells were trypsinized and plated at various densities in gelatin coated, feeder-free, 24 well plates directly in serum-based (15% FBS) or serum-replacement (15% KSR, Invitrogen) conditions supplemented with factors, and DMSO (Sigma). Recombinant proteins were obtained commercially (R&D) and stock solutions were prepared according to manufacturer's recommendation. The GSK-3β inhibitor CHIR99021 was purchased from Stemgent and prepared according to the manufacturer's recommendations. Fluorescent reporter analysis and image acquisition were done on a Zeiss Axiovert system.
# Cell cultures were dissociated by trypsinization, analyzed by flow cytometry on a FACScalibur (BD Biosciences) according to YFP expression. Data were further analyzed with MoFlo software (Beckman Coulter) and FlowJo software.
# In order to follow the differentiation of ES cells toward the first stage of paraxial mesoderm differentiation (ie presomitic fate), which represents the first step of skeletal muscle differentiation after acquisition of a mesodermal identity, we generated a transgenic mouse ES cell line harboring a fluorescent reporter specifically expressed in paraxial mesoderm progenitors. We used the promoter from the mouse Msgn1, a gene specific for the presomitic mesoderm, to drive the expression of Venus (a modified YFP).
# In order to optimize the differentiation conditions for paraxial mesoderm progenitors, we developed a manual screening assay, testing candidate growth factors and drugs interfering with various signaling pathways on ES cells. The Msgn1RepV reporter cells were plated at a defined density in 24-well plates coated with gelatin (0.1%). Two basal culture media were selected: a DMEM based medium containing 15% fetal bovine serum (FBS, high serum) and a defined serum-free medium containing 15% KSR (Invitrogen/Gibco). These basal media were supplemented with candidate factors on day 0 of differentiation. Control and experimental conditions were cultured in parallel. Cells were left to differentiate for three to four days with medium changed on day 2 or 3. Cell cultures were analyzed on day 3 and 4 of differentiation visually and by flow cytometry for YFP+ population quantification.
# HUES1 cells = test: qRT-PCR of paraxial mesoderm progenitor markers in differentiating human ES cells; format: cell-based; details: 3 to 10 days of culture in 15% FBS containing medium
# Experimental: Comparison of the expression of paraxial mesoderm progenitor markers Brachyury (A), PDGFRa (B), Tbx6 (C), Msgn1 (D) measured by Q RT-PCR in HUES1 undifferentiated or cultured in 15% FBS containing medium with or without Rspo3 for up to 10 days. Relative expression to undifferentiated HUES1 cells is shown (fold induction)
# Total RNA was extracted from ES cell cultures using a Trizol reagent (Invitrogen) or with the Rnaeasy plus mini-kit (Qiagen). RT-PCR was performed on 5 ng total RNA using QuantiFast SYBR Green RT-PCR Kit (Qiagen), appropriate primers and run on a LightCycler 480II (Roche). GAPDH was used as the internal control.
# Next, to confirm that R-spondin also induces iPAM cells from human ES cells differentiation, HUES1 cells were plated has single cells and differentiated in 15% FBS containing medium with or without Rspo3. qRT-PCR time course analysis for paraxial mesoderm progenitor markers expression was performed (FIG. 10).
# canonical Wnt signaling = test: BAT-luc luciferase reporter for canonical Wnt signaling in transfected ES cells; format: cell-based, mouse; details: Rspo3 10 ng/mL, low serum (1% FBS) medium
# mouse ES cells = test: Sequential differentiation of iPAM cells into paraxial mesoderm derivatives (staining, qRT-PCR); format: cell-based; details: DMSO 0.5%
# Experimental: From day 0 to day 4, mouse ES cells were differentiated in presence of Rspo3, followed by 15% FBS medium until day 18. Cell types were identified by tissue-specific antibody staining, namely Muscle (Desmin, green), Endothelium (PECAM1/CD31, green) and Cartilage (Alcian Blue).
# ES cells were cultured for 4 days in FBS15%, DMSO 0.5% and 10 ng/ml Rspo3 and then switched to FBS 15% or FBS 1% or FBS1% plus […] (Shh) and Retinoic acid (F1ShhRA) or plus Shh, Noggin and LiCl (F1SNLi). Cells were harvested the next day and analyzed by qRT-PCR for the dermal marker Dermol (A) and the muscle marker Myf5 (B). Graphs show fold enrichment.
# Total RNA was extracted from ES cell cultures using a Trizol reagent (Invitrogen) or with the Rnaeasy plus mini-kit (Qiagen). RT-PCR was performed on 5 ng total RNA using QuantiFast SYBR Green RT-PCR Kit (Qiagen), appropriate primers and run on a LightCycler 480II (Roche). GAPDH was used as the internal control. […]
# For example, between day0 to day4, ES cells were exposed to optimized differentiating conditions (ie. R-spondin3 10 ng/mL, DMSO 0.5%, in 15% FBS basal medium). […] At day 18, cell cultures were fixed and analyzed by tissue specific histochemical staining or immunofluorescence (FIG. 8). […] Cells were harvested the next day and analyzed by qRT-PCR for the dermal marker Dermo 1 and the muscle marker Myf5 (FIG. 9).
# Wnt signaling = details: cited from earlier work
molecule,measurement,setting,value
"Cc1c[nH]c(-c2cnc(NCCNc3ccc(C#N)cn3)nc2-c2ccc(Cl)cc2Cl)n1 [CHIR99021, reference compound]",efficiency in inducing YFP+ cells compared with Rspo-3,"Msgn1RepV mES cells; after 4 days, 15% FBS medium",as efficient as Rspo-3
"C[S+](C)[O-] [DMSO, Dimethyl sulfoxide]",effect on YFP+ cells,"Msgn1RepV mES cells; 0.5% DMSO in FBS-containing medium, 4 days in culture",positive effect on iPAM induction; also recorded: increase of YFP+ cells
B1,"expression of paraxial mesoderm progenitor markers Brachyury, PDGFRa, Tbx6 and Msgn1",HUES1 cells,induction of the paraxial mesoderm progenitor markers; also recorded: Strong activation of Msgn1 and Tbx6
same,induction of YFP+ cells,"Msgn1RepV mES cells; 10 ng/mL, both in FBS based medium and KSR based medium",up to 70%
same,YFP+ population of the total population,"Msgn1RepV mES cells; 10 ng/mL, day 4 of differentiation, 15% FBS medium, flow cytometry",more than 70%
same,effect on number of YFP+ cells,Msgn1RepV mES cells,significantly increase the number of YFP+ cells
same,"luciferase (BAT-luc) activation, canonical Wnt response",canonical Wnt signaling,strongly activated
same,"luciferase (BAT-luc) activation, canonical Wnt response",canonical Wnt signaling; listed as Rspo3,strongly activates the canonical Wnt response
same,activation of dermal marker Dermo 1 and muscle marker Myf5 (qRT-PCR),"mouse ES cells; 4 days Rspo3 10 ng/mL, FBS15%, then switched medium, harvested next day",Significant activation of these markers
same,tissue-specific staining of cultures at day 18,"mouse ES cells; day0 to day4 R-spondin3 10 ng/mL, 15% FBS, then differentiation media until day 18","positive for Cartilage (Alcian blue positive nodules), Muscles (Desmin positive fibers) and Endothelium (CD31/PECAM1)"
same,potency to activate Wnt signaling versus Rspo1 and 4,Wnt signaling,more potent
B2,effect on number of YFP+ cells,Msgn1RepV mES cells,significantly increase the number of YFP+ cells
same,potency to activate Wnt signaling versus Rspo1 and 4,Wnt signaling,more potent
B3,effect of supplementation of the medium on YFP+ induction,"Msgn1RepV mES cells; 15% FBS medium, 4 days",sharp decrease of YFP+ induction
